# Data reported in paper doi:10.1101/2021.12.30.474520.
# Read-outs that look alike come from different tables or passages of the source.
# Key:
# [1] = target: human SETD3 (residues 1-497) (human) (UniProt Q86TU7); experiment: ITC
# [2] = target: human SETD3 (residues 1-497) (human) (UniProt Q86TU7); experiment: ITC; remark: listed apart in the source
Kd [1],Kd [2],Substance
48.5 µM,44.4 µM,"β-actin peptide, residues 66-81, with 3-pyridylalanine at position 73 (βA-3PyrAla73) (from UniProt P60709 66-81)"
4.9 µM,3.1 µM,"β-actin peptide, residues 66-81, with 4-pyridylalanine at position 73 (βA-4PyrAla73) (from UniProt P60709 66-81)"
39.2 µM,7.2 µM,"β-actin peptide, residues 66-81, with ornithine at position 73 (βA-Orn73) (from UniProt P60709 66-81)"
4 µM,0.8 µM,"β-actin peptide, residues 66-81, with β-triazolylalanine at position 73 (βA-βTriaA73) (from UniProt P60709 66-81)"
